Results reported in US20180346580A1 (INTERVET, published 2018).
Substitutions are numbered along the chain they refer to. Each block holds one binder with its values, some of them ahead of it.

Key:
[1] = molecular target: T1, canine IL-4 receptor alpha chain (full length) expressed on the surface of CHO DG44 cells (canine); test: flow cytometry, binding to CHO-cIL-4Rα cells
T1 construct: also called cIL-4Rα; CHO-cIL-4Rα
T1 chain: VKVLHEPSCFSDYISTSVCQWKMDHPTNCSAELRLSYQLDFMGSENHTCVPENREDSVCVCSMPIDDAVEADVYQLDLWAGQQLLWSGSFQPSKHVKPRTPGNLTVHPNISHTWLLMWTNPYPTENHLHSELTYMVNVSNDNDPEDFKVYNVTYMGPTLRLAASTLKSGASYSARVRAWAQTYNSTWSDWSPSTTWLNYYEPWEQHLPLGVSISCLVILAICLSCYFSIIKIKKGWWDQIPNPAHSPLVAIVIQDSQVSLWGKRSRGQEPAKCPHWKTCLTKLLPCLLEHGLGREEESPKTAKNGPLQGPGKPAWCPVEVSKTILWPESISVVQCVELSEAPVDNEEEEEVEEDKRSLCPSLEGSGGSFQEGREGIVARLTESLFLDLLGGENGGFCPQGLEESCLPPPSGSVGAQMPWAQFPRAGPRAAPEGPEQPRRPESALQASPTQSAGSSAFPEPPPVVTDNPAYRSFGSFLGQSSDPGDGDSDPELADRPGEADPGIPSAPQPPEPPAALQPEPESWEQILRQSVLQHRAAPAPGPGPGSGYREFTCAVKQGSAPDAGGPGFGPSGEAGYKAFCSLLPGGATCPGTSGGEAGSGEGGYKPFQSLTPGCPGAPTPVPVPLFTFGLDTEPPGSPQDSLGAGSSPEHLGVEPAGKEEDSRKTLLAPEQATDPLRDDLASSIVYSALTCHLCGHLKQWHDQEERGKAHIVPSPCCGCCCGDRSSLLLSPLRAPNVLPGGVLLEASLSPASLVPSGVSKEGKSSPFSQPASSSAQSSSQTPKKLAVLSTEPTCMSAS

[2] = molecular target: T1, canine IL-4 receptor alpha chain (full …); test: flow cytometry ligand blockade on CHO-cIL-4Rα cells; competitor biotinylated canine IL-4 at 0.32 µg/mL
Method: Procedure: [0247] 1. CHO-DH44-canIL-4Rα cell grown to 2-4 ×10⁶ cells/mL with more than 96% viability. [0248] 2. The cells were spun down, the supernatant discarded, and the cells were suspended in FACS buffer to 2×10⁷ cells/mL. [0249] 3. The cells were distributed into a U-shape 96-well plate, 50 μl each well. [0250] 4. The anti-canine IL-4Rα mAbs in FACS buffer was diluted three-fold on a 96-well plate from top down to bottom well, starting at 50 μg/mL. [0251] 5. 50 μl of each diluted Ab was transferred into the cell plate and then incubated on ice for 30 min. [0252] 6. The cells were washed twice with FACS buffer. [0253] 7. The cells were resuspended into 100 μl of biotinylated canine IL-4 at 0.32 μg/mL in FACS buffer and incubated on ice for 30 min. [0254] 8. The cells were washed twice with FACS buffer. [0255] 9. The cells were responded into 100 μl of R-phycoerythin conjugated Streptavidin (1:1000 dilution) in FACS buffer and incubated on ice for 30 min. [0256] 10. The cells were washed twice with FACS buffer. [0257] 11. The cells were brought up to 300 μl in FACS buffer. [0258] 12. 10,000 cells were read for each sample by BD Accuri-C6. [0259] 13. The resulting readout were analyzed by FlowJo to get the mean fluorescent intensity (MFI).

[3] = molecular target: T2, HIS-tagged extracellular domain of canine IL-4 receptor alpha chain (canine); test: ELISA on plate-coated HIS-tagged canine IL-4Rα ECD, detection with HRP goat anti-mouse IgG
T2 construct: also called canine IL-4 receptor alpha chain ECD HIS-tagged protein; extracellular domain of canine IL-4Rα
T2 chain: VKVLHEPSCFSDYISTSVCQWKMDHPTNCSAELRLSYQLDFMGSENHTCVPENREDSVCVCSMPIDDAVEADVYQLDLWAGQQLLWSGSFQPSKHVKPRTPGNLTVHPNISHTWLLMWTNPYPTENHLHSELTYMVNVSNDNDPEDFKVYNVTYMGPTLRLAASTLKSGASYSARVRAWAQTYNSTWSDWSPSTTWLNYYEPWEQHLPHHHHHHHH
Method: This procedure was repeated as necessary to obtain adequate amounts of mAb from each hybridoma clone. Harvested cell suspensions were centrifuged and the supernatants were filtered through 0.2 micron filter membranes. For antibody purification, each clone's supernatant was purified using a Protein G Sepharose 4 Fast flow 5 mL column (GE Healthcare) by gravity flow. After washing with Tris-EDTA (TE) buffer pH 8.0, bound antibodies were eluted using 0.1 M glycine buffer, pH 2.7, followed by pH neutralization using 1 M Tris, pH 8.0. Antibodies were concentrated and buffer exchanged into phosphate-buffered saline (PBS) using Centriprep YM-10 kDa NMWL centrifugal filter units (Millipore). Antibody concentrations were quantified using spectrophotometry. Purified anti-canine IL-4 receptor α chain mAbs were tested for reactivity with the HIS-tagged ECD domain of canine IL-4 receptor alpha chain by ELISA as follows: HIS-tagged canine IL-4 receptor alpha chain protein is diluted to 10 μg/mL in coating buffer (Carbonate/Bicarbonate pH 9.0) and dispensed at 100 μl/well in 96-well flat bottomed ELISA plates (NUNC). The plates are incubated at 4° C. overnight. The plates are then washed three times with phosphate buffered saline containing 0.05% Tween-20 (PBST). Next, 200 μl of blocking buffer (5% skim milk in PBST) is added to each well and the plates are incubated at 37° C. for 60 minutes. The plates are then washed three times with PBST. Next, 100 μl of test mAbs diluted in blocking buffer is added to the first wells of the appropriate columns. Test mAbs are then diluted three-fold to the appropriate plate position. Following incubation of the plates at 37° C. for 60 minutes, the plates are washed three times with PBST. Next, 100 μl per well of a 1:2,000 dilution of a horseradish peroxidase conjugated goat anti-mouse IgG (KPL) is added to the plates, which are then incubated at 37° C. for 60 minutes. Then the plates are washed three times with PBST, and 100 μl/well of 3,3′,5,5′ tetramethyl benzidine, (TMB) substrate (from KPL) is added to the plates. The color reaction is allowed to develop for 5-20 minutes at 37° C. prior to measuring absorbance at 650 nm.
Various mouse anti-canine IL-4Rα monoclonal antibodies (mAbs) were assayed by ELISA for their ability to bind the extracellular domain of canine IL-4Rα.

EC50 [1]: 1.6 nM | IC50 [2]: 3.9 nM
B1: mouse anti-canine IL-4Rα monoclonal antibody 4H3 (antibody, V domains shown)
VH: QVQLQQPGAELVKPGASVKLSCKASGYTFTNYWIHWMKQRPGRGLEWIGRIDPNSGGTKYNEKFKSKATLTVDKPSITAYMQLSSLTSEDSAVYYCAAFGSTYGFAYWGQGTLVTVSA
VL: DIVMSQSPSSLAVSAGEKVTMSCKSSQSLLNSRTRKNYLAWYQQKPGQSPKLLIYWASTRESGVPDRFTGSGSGTDFTLTISSVQAEDLAVYYCKQSYNLYTFGGGTKLEIK
notes: Hybridoma-derived mouse antibody; also called mAb 4H3

EC50 [1]: 7.5 nM | EC50 (read off the curve) [3]: ~0.3 nM | IC50 [2]: 53.2 nM
B2: mouse anti-canine IL-4Rα monoclonal antibody 11B6 (antibody, V domains shown)
VH: EVQLQESGPGLAKPSQTLSLTCSVTGYSITSDYWNWIRKFPGNKLEYMGYINYSGNTYYNPSLKSRISITRDTSKNQYYLQLNSVTTEDTATYYCARYGGLRQGSWHFDVWGPGTTVTVSS
VL: QIVLTQSPAIMSASPGEKVTISCSASSSVSYMYWYQQKPGSSPKPWIYRTSNLASGVPARFSGSGSGTSYSLTISSMEAEDAATYYCQQYHSYPATFGGGTKLEIK
notes: Hybridoma-derived mouse antibody; also called mAb 11B6

EC50 [1]: 1.2 nM | IC50 [2]: 2.1 nM
B3: mouse anti-canine IL-4Rα monoclonal antibody 2E2 (antibody, V domains shown)
VH: EVKLVESGGGLVQPGGSLKLSCVASGFTFSDYHMHWVRQTPEKRLEWVAYISKGGGSTYYPDTEKGRFTISRDNAKNTLYLQMSRLKSEDTAMYYCARSPGPSSFYWYFDVWGTGTTVTVSS
VL: DIQMTQSPASLSASVGETVTITCRASENIYSYLAWYQQKQGKSPQLLVYNAKTLAEGVPSRFSGSGSGTQFSLKINSLQPEDFGSYYCQHHYGIPVTVGVGTKLELK
notes: Hybridoma-derived mouse antibody; also called mAb 2E2

EC50 [1]: 1.1 nM | IC50 [2]: 4.2 nM
B4: mouse anti-canine IL-4Rα monoclonal antibody 4D8 (antibody, V domains shown)
VH: EVTLVESGGGLVQPGGSLKLSCAASGFTFSDYYMYWVRQTPEKRLEWVAYISPGGGSTYYPDTIKGRFTISRDNAKNTLYLQMSRLKSEDTAMYYCTRHGSPYGSSRGAWFAYWGQGTLVTVSA
VL: B3 VL with A51G, S60A, Y92D, V98F, V100A
notes: Hybridoma-derived mouse antibody; also called mAb 4D8

EC50 [1]: 8.6 nM | IC50 [2]: 19.3 nM
B5: mouse anti-canine IL-4Rα monoclonal antibody 6C12 (antibody, V domains shown)
VH: QIQLIQSGPELKKPGETVKISCKASGYTFTTFGMSWVKQAPGKGLKWMGWISTYSGVPTYADDFKGRFAFSLETSASTAYLQINNLKNEDTASYFCARHTFQSRGLAYWGQGTLVTVSA
VL: DIVMTQSHKFMSTSVGDRVSITCKASQDVITTVAWYQQKPGQSPKLLIYSASYRYTGVPDRFTGSGSGTDFTFTITSVQTEDLAVYYCQQHYSTPWTFGGGTKLEIK
notes: Hybridoma-derived mouse antibody; also called mAb 6C12

EC50 (read off the curve) [3]: ~0.1 nM
B6: 11D3 (antibody, V domains shown)
VH: QIQLVQSGPELKKPGETVKISCKASGYIFTTYGMYWVKQAPGKGLKWMGWINTYSGVPTYVDDFKGRFAFSLETSASTAYLQINNLKNEDTATYFCVVAGWFAYWGQGTLVTVSA
VL: DIKMTQSPSSMYASLGERVTITCKASQDIKSYLSWFQQKPGKSPKTLIYRANILIDGVPSRFSGSGSGQDYSLTISSLEYEDMGIYYCLQYDEFPYTFGGGTKLEIK
notes: member of the group m16; also called mAb 11D3; mouse anti-canine IL-4Rα monoclonal antibody 11D3

binding result [3]: binds
B7: 10E10 (antibody, V domains shown)
VH: QVQLQQSGPELVKPGASVKLSCKASGYTFTTYDIHWVKQRPGQGLEWIGWIYPRDGRTTYNEKFKAKATLTVDTSSTTAYMELHSLTSEDSAVYFCARSSPFGYWGQGTTLTVSS
VL: DIQMTQSSSYLSVSLGGRVTITCKASDHINNWLAWYQQKPGNAPRLLISGATSLETGVPSRFSGSGSGKDYTLSITSLQTEDAATYHCHQYWSIPYTFGGGTKVEIK
notes: member of the group m16; also called mAb 10E10; mouse anti-canine IL-4Rα monoclonal antibody 10E10

EC50 (read off the curve) [3]: ~0.2 nM
B8: 1A9 (antibody, V domains shown)
VH: QVPLQQSGPELVKPGASVKISCKASGYAFSSSWMNWVKQRPGKGLEWIGRIYPGDGDTKYNGKFKGKATLTADKSSSTAYMQLSSLTSEDSAVYFCARDDYDEASWGQGTLVTVSA
VL: DIVMTQSQKFMSTSVGDRVSITCKASQNVRSAVAWYQQKPGQSPKSLIYLASNRHTGVPDRFTGSGSGTDFTLTISNVQSEDLADYFCLQHWNYPFTFGSGTKLEIK
notes: member of the group m16; also called mAb 1A9; mouse anti-canine IL-4Rα monoclonal antibody 1A9

EC50 (read off the curve) [3]: ~0.3 nM
B9: 10F2 (antibody, V domains shown)
VH: QVHLKESGPGLVAPSQSLSITCTVSGFSLTSYGVSWVRQPPGEGLEWLGVIWGDGSTYFHSALISRLSISKDDSKSQVFLKLNSLQTDDTATYYCAKQGTIYDGYYNYAMDYWGQGTSVTVSS
VL: DIVMSQSPSSLTVSVGEKVTMSCKSSQNLLYGGNQKNYLAWYQQKPGQSPKLLIYWASTRESGVPDRFTGSGSGTDFTLTISSVRAEDLAVYYCQQYYDYPYTFGGGTKLEIK
notes: member of the group m16; also called mAb 10F2; mouse anti-canine IL-4Rα monoclonal antibody 10F2

binding result [3]: binds
B10: 1B12 (antibody, V domains shown)
VH: EVQLQQSGPELVKPGASVKISCKASGYTFTDYYMNWVKQSHGKSLEWIGDIIPSNGGTSYNQKFKGKATLTVDKSSSAAYMELRSLTSEDSAVYYCARGISYYGNRYYFTMDYWGQGTSVTVSS
VL: DIVMTQAAPSVPVTPGESVSISCRSSKSLLHSNGNTYLFWFVQRPGQSPQLLIYRMSNLASGVPDRFSGSGSGTAFTLRISRVEAEDVGVYYCMQHLEYPFTFGSGTKLDIK
notes: member of the group m16; also called mAb 1B12; mouse anti-canine IL-4Rα monoclonal antibody 1B12

EC50 (read off the curve) [3]: ~0.1 nM
B11: 1A3 (antibody, V domains shown)
VH: EVQLVESGGDLVKPGGSLKLSCAASGFTFSDFGMHWVRQAPEKGLGWVAYISSGSGTIYYADTVRGRFTISRDNVKNTLFLQMTSLRSEDTAMYYCVRGDLYYGSSFDAYWGRGTLVTVSA
VL: QIVLSQSPAILSASPGEKVTMTCRASSSVSFMFWYQQKPGSSPKPWIYDTSNLASGVPARFSGSGSGTSYSLTISRVEAEDAATYYCQQWSSNPLTFGAGTKLELK
notes: member of the group m16; also called mAb 1A3; mouse anti-canine IL-4Rα monoclonal antibody 1A3
